The assay addresses taxol-stabilized microtubules polymerized from porcine brain tubulin (porcine) (UniProt P02550). The assay is described as follows: co-sedimentation; 0, 1, 2, 4, 6, 8 or 10 µM ICR2-His6 added to taxol-stabilized microtubules (5 µM tubulin) in PEMT (100 mM PIPES, 1 mM EGTA, 1 mM MgCl2, 1 mM GTP, 20 µM taxol, pH 6.9); 100,000 g, 25°C, 15 min; SDS-PAGE, Coomassie, densitometry.

Regarding “ICR2-His6 (from UniProt Q9ZQC5 56-583) (natural protein)”, the stoichiometry N (mol ICR2-His6 per mole of tubulin) came to 0.85.

The values above are taken from publication PMC9845754.
